This test has as its target T1, human ADP-ribosyl cyclase 2 (BST1; CD157) (human, UniProt Q10588 33-293).
T1 construct: Endogenous BST1 on human cells (A549, H226, U937, AML blasts); also called Bone marrow stromal antigen 1; cell-surface human BST1
T1 sequence: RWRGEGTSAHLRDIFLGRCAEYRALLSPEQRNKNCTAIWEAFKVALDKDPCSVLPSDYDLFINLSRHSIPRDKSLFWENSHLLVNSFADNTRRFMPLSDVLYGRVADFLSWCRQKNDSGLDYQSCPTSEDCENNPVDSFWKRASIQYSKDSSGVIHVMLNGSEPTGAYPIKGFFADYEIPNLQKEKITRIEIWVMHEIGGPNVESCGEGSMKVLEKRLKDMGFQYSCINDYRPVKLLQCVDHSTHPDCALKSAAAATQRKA
As to the kind of experiment: flow cytometry on A549 and H226 cells. Here is the method: The specificity of antibodies against the BST1 selected in Example 2 was tested by flow cytometry. To test the ability of the antibodies to bind to the cell surface BST1 protein, the antibodies were incubated with the BST1-expressing cells, A549 and H226, from human lung adenocarcinoma and human lung squamous carcinoma, respectively. Cells were washed in FACS buffer (DPBS, 2% FBS), centrifuged and resuspended in […] of the diluted primary BST1 antibody (also diluted in FACS buffer). The antibody-A549 complex was incubated on ice for 60 min and then washed twice with FACS buffer as described above. The cell-antibody pellet was resuspended in 100 μl of the diluted secondary antibody (also diluted in FACS buffer) and incubated on ice for 60 min on ice. The pellet was washed as before and resuspended in […] FACS buffer. The samples were loaded onto the BD FACScanto II flow sytometer and the data analyzed using the BD FACSdiva software.
Background: A flow cytometer gives signals particle by particle.

B1: BST1_A3 (Fab, V domains shown)
VH: QVQLQQSRAELVMPGASVKMSCKTSGYTFSDYWVHWVRQRPGQGLEWIGAIDGSDTFNDYSQKFKGRATLTVDESSSTVYMQLSSLTSEDSAVYYCARGGLLQYWGQGTTLTVSS
VL: DIQLTQSPASLSASVGETVTITCRASENIYSYLAWYQQKQGKSPQLLVYNTKTLGEGVPSRFSGSGSGTQFSLKINSLQPEDFGSYYCQHHYGTPFTFGSGTKLEIKR
Consider B1, for which the binding result is reported as “binds”.

These data come from US20130273068A1 (published 2013).
